Legend:
Assay in all cases: BLI; fortéBio Octet Red384; RSV F variant captured on motavizumab IgG loaded on anti-human Fc probes; Fab in solution 0.007 to 0.5 μM; 30°C; PBS + 1% BSA; 1:1 fit
Conditions in all cases: both partners purified
[1] = molecular target: T1, DS-Cav1 5-ABCDE, foldon removed (Human respiratory syncytial virus A, …, S155C | S290C | S190F | V207L | L512C (stands in the printed letters) | L513C …)
T1 construct: RSV F glycoprotein, F1 subunit from its N-terminus to residue 511, with the DS (S155C-S290C) and Cav1 (S190F, V207L) mutations; RSV F α10 helix from residue 512 with rings A, B and C; added stretch based on the α10 heptad repeat; ring D at 533C-534C and ring E at 540C-541C; Gly-Gly linker and LVPR of the thrombin site, left after cleavage; trimeric species purified after foldon removal; also …

[2] = molecular target: T2, DS-Cav1 3-BCD, foldon removed (Human respiratory syncytial virus A, …, S155C | S290C | S190F | V207L | G519C (stands in the printed letters) | K520C …)
T2 construct: RSV F glycoprotein, F1 subunit from its N-terminus to residue 511, with the DS (S155C-S290C) and Cav1 (S190F, V207L) mutations; RSV F α10 helix from residue 512 with rings B and C; added stretch that duplicates part of the coiled-coil; ring D at 533C-534C; Gly-Gly linker and LVPR of the thrombin site, left after cleavage; trimeric species purified after foldon removal; also called rings BCD …

[3] = molecular target: T3, DS-Cav1 4-BCDE, foldon removed (Human respiratory syncytial virus A, …, S155C | S290C | S190F | V207L | G519C (stands in the printed letters) | K520C …)
T3 construct: RSV F glycoprotein, F1 subunit from its N-terminus to residue 511, with the DS (S155C-S290C) and Cav1 (S190F, V207L) mutations; RSV F α10 helix from residue 512 with rings B and C; added stretch based on the α10 heptad repeat; ring D at 533C-534C and ring E at 540C-541C; Gly-Gly linker and LVPR of the thrombin site, left after cleavage; trimeric species purified after foldon removal; also called …

[4] = molecular target: T4, DS-Cav1 4-ABCD, foldon removed (Human respiratory syncytial virus A, …, S155C | S290C | S190F | V207L | L512C (stands in the printed letters) | L513C …)
T4 construct: RSV F glycoprotein, F1 subunit from its N-terminus to residue 511, with the DS (S155C-S290C) and Cav1 (S190F, V207L) mutations; RSV F α10 helix from residue 512 with rings A, B and C; added stretch that duplicates part of the coiled-coil; ring D at 533C-534C; Gly-Gly linker and LVPR of the thrombin site, left after cleavage; trimeric species purified after foldon removal; also called Rings ABCD; …

[5] = molecular target: T5, DS-Cav1 2-AB, foldon removed (Human respiratory syncytial virus A, …, S155C | S290C | S190F | V207L | L512C (stands in the printed letters) | L513C …)
T5 construct: RSV F glycoprotein, F1 subunit from its N-terminus to residue 511, with the DS (S155C-S290C) and Cav1 (S190F, V207L) mutations; RSV F α10 helix from residue 512 with rings A and B; Gly-Gly linker and LVPR of the thrombin site, left after cleavage; trimeric species purified after foldon removal; also called Rings AB; rings AB without foldon; source: Expi293F, transient transfection, purified from …

B1: D25 antigen binding fragment (Fab) (Fab, V domains shown)
VH: QVQLVQSGAEVKKPGSSVMVSCQASGGPLRNYIINWLRQAPGQGPEWMGGIIPVLGTVHYAPKFQGRVTITADESTDTAYIHLISLRSEDTAMYYCATETALVVSTTYLPHYFDNWGQGTLVTVSS
VL: DIQMTQSPSSLSAAVGDRVTITCQASQDIVNYLNWYQQKPGKAPKLLIYVASNLETGVPSRFSGSGSGTDFSLTISSLQPEDVATYYCQQYDNLPLTFGGGTKVEIK
notes: Fab in solution in the Octet assays; also called site Ø-specific antibody D25
Kd [1]: 470 pM
Kd [2]: 380 pM
Kd [3]: 330 pM
Kd [4]: 320 pM
Kd [5]: 210 pM
